The record followed here is patent US20260234252A1 (Janssen / Centocor, published 2026).

As a reminder, the EC50 is the concentration at which the effect is half-maximal.

For the test, the target named is T1, Vβ17 on human CD8+ T cells (human).
T1 construct: whole, on cells; Polyclonal donor T cells; also called Vβ17+ CD8+ T cells; M1-stimulated T-cells
The experiment in a line: flow cytometry on FLU MP 58 stimulated CD8+ T cells, anti-human IgG4 Fc-PE. Background: Flow cytometry measures light scatter and fluorescence of single cells or particles in a stream.

“And” between values parts separate entries of the source, which are not always exact repeats. Identical values can stand only once.

T1 sequence (A0A075B6N1 22-114): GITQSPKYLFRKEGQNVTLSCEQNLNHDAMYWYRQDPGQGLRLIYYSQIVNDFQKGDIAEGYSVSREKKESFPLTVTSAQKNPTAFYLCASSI
Method: Mouse anti-human IgG4 Fc-PE secondary antibody was used to detect the bispecific antibody.
Bispecific antibody binding affinities to CD8+ T cell were determined by flow cytometry.

B1: VB11 (anti-Vβ17/anti-CD123) bispecific antibody (bispecific antibody, human IgG4 S228P, kappa, F234A L235A)
heavy 1: QVQLQESGPGLVKPSETLSLTCTVSGYSITSGYFWNWIRQPPGKGLEWIGYISYDGSNNYNPSLKSRVTISRDTSKNQFSLKLSSVTAADTAVYYCASPSPGTGYAVDYWGQGTLVTVSSASTKGPSVFPLAPCSRSTSESTAALGCLVKDYFPEPVTVSWNSGALTSGVHTFPAVLQSSGLYSLSSVVTVPSSSLGTKTYTCNVDHKPSNTKVDKRVESKYGPPCPPCPAPEAAGGPSVFLFPPKPKDTLMISRTPEVTCVVVDVSQEDPEVQFNWYVDGVEVHNAKTKPREEQFNSTYRVVSVLTVLHQDWLNGKEYKCKVSNKGLPSSIEKTISKAKGQPREPQVYTLPPSQEEMTKNQVSLSCAVKGFYPSDIAVEWESNGQPENNYKTTPPVLDSDGSFFLVSRLTVDKSRWQEGNVFSCSVMHEALHNRFTQKSLSLSLGK
light 1: DIQMTQSPSSLSASVGDRVTITCRSSQSLVHSNGNTYLHWYQQKPGKAPKFLIYKVSNRFSGVPSRFSGSGSGTDFTLTISSLQPEDFATYYCSQSTHVPFTFGQGTKLEIKRTVAAPSVFIFPPSDEQLKSGTASVVCLLNNFYPREAKVQWKVDNALQSGNSQESVTEQDSKDSTYSLSSTLTLSKADYEKHKVYACEVTHQGLSSPVTKSFNRGEC
heavy 2: EVQLVQSGAEVKKPGESLKISCKGSGYSFTSYWISWVRQMPGKGLEWMGIIDPSDSDTRYSPSFQGQVTISADKSISTAYLQWSSLKASDTAMYYCARGDGSTDLDYWGQGTLVTVSSASTKGPSVFPLAPCSRSTSESTAALGCLVKDYFPEPVTVSWNSGALTSGVHTFPAVLQSSGLYSLSSVVTVPSSSLGTKTYTCNVDHKPSNTKVDKRVESKYGPPCPPCPAPEAAGGPSVFLFPPKPKDTLMISRTPEVTCVVVDVSQEDPEVQFNWYVDGVEVHNAKTKPREEQFNSTYRVVSVLTVLHQDWLNGKEYKCKVSNKGLPSSIEKTISKAKGQPREPQVYTLPPSQEEMTKNQVSLWCLVKGFYPSDIAVEWESNGQPENNYKTTPPVLDSDGSFFLYSRLTVDKSRWQEGNVFSCSVMHEALHNHYTQKSLSLSLGK
light 2: EIVLTQSPGTLSLSPGERATLSCRASQSVSSSYLAWYQQKPGQAPRLLIYGASSRATGIPDRFSGSGSGTDFTLTISRLEPEDFAVYYCQQDYGFPWTFGQGTKVEIKRTVAAPSVFIFPPSDEQLKSGTASVVCLLNNFYPREAKVQWKVDNALQSGNSQESVTEQDSKDSTYSLSSTLTLSKADYEKHKVYACEVTHQGLSSPVTKSFNRGEC
notes: also called Vβ17 and CD123 bispecific
For B1, the 50% effective concentration (EC50) was 1.35 µg/mL and 9 nM.

B2: VB13 (Vβ17×Null) bispecific antibody (bispecific antibody, human IgG4 S228P, kappa, F234A L235A)
heavy 1: QVQLQESGPGLVKPSETLSLTCTVSGYSITSGYFWNWIRQPPGKGLEWIGYISYDGSNNYNPSLKSRVTISRDTSKNQFSLKLSSVTAADTAVYYCASPSPGTGYAVDYWGQGTLVTVSSASTKGPSVFPLAPCSRSTSESTAALGCLVKDYFPEPVTVSWNSGALTSGVHTFPAVLQSSGLYSLSSVVTVPSSSLGTKTYTCNVDHKPSNTKVDKRVESKYGPPCPPCPAPEAAGGPSVFLFPPKPKDTLMISRTPEVTCVVVDVSQEDPEVQFNWYVDGVEVHNAKTKPREEQFNSTYRVVSVLTVLHQDWLNGKEYKCKVSNKGLPSSIEKTISKAKGQPREPQVYTLPPSQEEMTKNQVSLSCAVKGFYPSDIAVEWESNGQPENNYKTTPPVLDSDGSFFLVSRLTVDKSRWQEGNVFSCSVMHEALHNRFTQKSLSLSLGK
light 1: DIQMTQSPSSLSASVGDRVTITCRSSQSLVHSNGNTYLHWYQQKPGKAPKFLIYKVSNRFSGVPSRFSGSGSGTDFTLTISSLQPEDFATYYCSQSTHVPFTFGQGTKLEIKRTVAAPSVFIFPPSDEQLKSGTASVVCLLNNFYPREAKVQWKVDNALQSGNSQESVTEQDSKDSTYSLSSTLTLSKADYEKHKVYACEVTHQGLSSPVTKSFNRGEC
heavy 2: not shown
light 2: not shown
notes: also called Vβ17XNULL; Vβ17 x Null
On to B2, for which the EC50 was 2.8 µg/mL and 18.7 nM.
